Source: PMC12422955 (Nature, 2025)

B3: recombinant homomeric GluA4 receptor (C-terminal GFP and Strep tag) (receptor, UniProt P19493 21-902, looked up)
chain: GAFPSSVQIGGLFIRNTDQEYTAFRLAIFLHNTSPNASEAPFNLVPHVDNIETANSFAVTNAFCSQYSRGVFAIFGLYDKRSVHTLTSFCSALHISLITPSFPTEGESQFVLQLRPSLRGALLSLLDHYEWNCFVFLYDTDRGYSILQAIMEKAGQNGWHVSAICVENFNDVSYRQLLEELDRRQEKKFVIDCEIERLQNILEQIVSVGKHVKGYHYIIANLGFKDISLERFIHGGANVTGFQLVDFNTPMVTKLMDRWKKLDQREYPGSETPPKYTSALTYDGVLVMAETFRSLRRQKIDISRRGNAGDCLANPAAPWGQGIDMERTLKQVRIQGLTGNVQFDHYGRRVNYTMDVFELKSTGPRKVGYWNDMDKLVLIQDMPTLGNDTAAIENRTVVVTTIMESPYVMYKKNHEMFEGNDKYEGYCVDLASEIAKHIGIKYKIAIVPDGKYGARDADTKIWNGMVGELVYGKAEIAIAPLTITLVREEVIDFSKPFMSLGISIMIKKPQKSKPGVFSFLDPLAYEIWMCIVFAYIGVSVVLFLVSRFSPYEWHTEEPEDGKEGPSDQPPNEFGIFNSLWFSLGAFMQQGCDISPRSLSGRIVGGVWWFFTLIIISSYTANLAAFLTVERMVSPIESAEDLAKQTEIAYGTLDSGSTKEFFRRSKIAVYEKMWTYMRSAEPSVFTRTTAEGVARVRKSKGKFAFLLESTMNEYTEQRKPCDTMKVGGNLDSKGYGVATPKGSSLGNAVNLAVLKLNEQGLLDKLKNKWWYDKGECGSGGGDSKDKTSALSLSNVAGVFYILVGGLGLAMLVALIEFCYKSRAEAKRMKLTFSEATRNKARLSITGSVGENGRVLTPDCPKAVHTGTAIRQSSGLAVIASDLP
notes: GluA4; also called recombinant GluA4; rGluA4-GFP; source: tsA201 cells (BacMam), digitonin-solubilised, purified (Strep-Tactin, SEC); not shown: GFP, C-terminal, kept

Key:
Conditions in all cases: both partners purified
[1] = molecular target: dNOE1–mScarlet (dimeric NOE1 construct, residues 205-481 with five GCN4 residues) (rat, UniProt Q62609 205-481); test: SEC; FSEC of the dNOE1 construct alone, in the absence of a reducing agent
[2] = molecular target: B3; test: BLI; Octet RED384, 30 °C; Fc–dNOE1–mScarlet (20 μg/ml) captured on AMC biosensor; GluA4–GFP 0.78–50 nM; 20 mM Tris pH 8.0, 150 mM NaCl, 0.075% digitonin with 3 mM glutamate or 2 μM ZK and 10 μM (R,R)-2b; 1:1 binding model
[3] = molecular target: T1, recombinant full-length NOE1–mScarlet-His (rat, UniProt Q62609 25-485); test: SEC; FSEC, Superose 6 calibrated with mass markers; 5 nM full-length NOE1–mScarlet with 5–150 nM GluA4, or 1 nM with 1–100 nM CP-AMPARs; mScarlet fluorescence
T1 construct: signal peptide in the construct; full-length rat NOE1, residues 1-485; Tag joined by an SG linker or an SG–HRV 3C site–AAAA motif; source: tsA201 cells (BacMam), secreted, purified (Ni-NTA, SEC); not shown: mScarlet, C-terminal, kept
T1 sequence (Q62609 25-485): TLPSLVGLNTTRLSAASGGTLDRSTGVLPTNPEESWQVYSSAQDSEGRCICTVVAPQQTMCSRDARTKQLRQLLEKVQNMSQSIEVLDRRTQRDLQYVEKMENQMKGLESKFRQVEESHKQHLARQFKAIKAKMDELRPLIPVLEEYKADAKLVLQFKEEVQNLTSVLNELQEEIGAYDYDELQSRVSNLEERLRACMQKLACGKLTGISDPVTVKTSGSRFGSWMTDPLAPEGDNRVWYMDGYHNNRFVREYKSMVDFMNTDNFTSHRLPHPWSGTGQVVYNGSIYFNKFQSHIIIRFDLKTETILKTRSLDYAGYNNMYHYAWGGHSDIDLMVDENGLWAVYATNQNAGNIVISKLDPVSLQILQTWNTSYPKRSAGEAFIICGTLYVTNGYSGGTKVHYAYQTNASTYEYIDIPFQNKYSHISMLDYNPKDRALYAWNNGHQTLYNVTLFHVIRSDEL

B1: dNOE1–mScarlet (dimeric NOE1 construct, residues 205-481 with five GCN4 residues) (domain or fragment)
chain: GLKQEIDELQSRVSNLEERLRACMQKLACGKLTGISDPVTVKTSGSRFGSWMTDPLAPEGDNRVWYMDGYHNNRFVREYKSMVDFMNTDNFTSHRLPHPWSGTGQVVYNGSIYFNKFQSHIIIRFDLKTETILKTRSLDYAGYNNMYHYAWGGHSDIDLMVDENGLWAVYATNQNAGNIVISKLDPVSLQILQTWNTSYPKRSAGEAFIICGTLYVTNGYSGGTKVHYAYQTNASTYEYIDIPFQNKYSHISMLDYNPKDRALYAWNNGHQTLYNVTLFHVIR
modifications: Disulfide-linked dimer (non-reducing), glycosylated. The cystatin SN signal peptide is assumed cleaved after ...AVALA by convention, leaving G plus GCN4 LKQEI. C-terminal GSG-3C-AAAA-mScarlet-His …
In the case of B1, the “stoichiometry N” value [1] is reported as 2.

B2: Fc–dNOE1–mScarlet (Fc fusion)
chain: LKQEIDELQSRVSNLEERLRACMQKLACGKLTGISDPVTVKTSGSRFGSWMTDPLAPEGDNRVWYMDGYHNNRFVREYKSMVDFMNTDNFTSHRLPHPWSGTGQVVYNGSIYFNKFQSHIIIRFDLKTETILKTRSLDYAGYNNMYHYAWGGHSDIDLMVDENGLWAVYATNQNAGNIVISKLDPVSLQILQTWNTSYPKRSAGEAFIICGTLYVTNGYSGGTKVHYAYQTNASTYEYIDIPFQNKYSHISMLDYNPKDRALYAWNNGHQTLYNVTLFHVIR
modifications: Disulfide-linked, glycosylated dimer. Mouse Fc carrier (before the coiled coil) and C-terminal mScarlet-His left out. The position of the five GCN4 residues relative to Fc is not given; they are …
Work on B2 yielded a Kd [2] of ~9.4 nM.

In the case of B3, the “stoichiometry N” value [3] is reported as 2 receptors per NOE1 tetramer.
